# Test results taken from doi:10.64898/2025.12.08.692910 (bioRxiv, 2025).
# T1: Helicobacter pylori UreE, wild-type (residues 1-170) (Helicobacter pylori, UniProt Q09064 1-170)
# T1 sequence (looked up): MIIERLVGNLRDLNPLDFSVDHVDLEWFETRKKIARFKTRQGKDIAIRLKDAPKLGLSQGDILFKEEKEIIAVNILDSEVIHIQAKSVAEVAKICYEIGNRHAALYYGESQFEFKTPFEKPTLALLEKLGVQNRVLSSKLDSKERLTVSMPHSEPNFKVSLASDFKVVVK
# B1: Helicobacter pylori UreE(1-148), C-terminal truncation variant (domain or fragment, UniProt Q09064 1-148, looked up)
# chain: MIIERLVGNLRDLNPLDFSVDHVDLEWFETRKKIARFKTRQGKDIAIRLKDAPKLGLSQGDILFKEEKEIIAVNILDSEVIHIQAKSVAEVAKICYEIGNRHAALYYGESQFEFKTPFEKPTLALLEKLGVQNRVLSSKLDSKERLTV
# B2: Helicobacter pylori UreE(1-158), C-terminal truncation variant (domain or fragment, UniProt Q09064 1-158, looked up)
# chain: MIIERLVGNLRDLNPLDFSVDHVDLEWFETRKKIARFKTRQGKDIAIRLKDAPKLGLSQGDILFKEEKEIIAVNILDSEVIHIQAKSVAEVAKICYEIGNRHAALYYGESQFEFKTPFEKPTLALLEKLGVQNRVLSSKLDSKERLTVSMPHSEPNFK
# B3: Helicobacter pylori HypA with C-terminal Strep-tag II (HypAstr) (natural protein, UniProt P0A0U4 1-117, looked up)
# chain: MHEYSVVSSLIALCEEHAKKNQAHKIERVVVGIGERSAMDKSLFVSAFETFREESLVCKDAILDIVDEKVELECKDCSHVFKPNALDYGVCEKCHSKNVIITQGNEMRLLSLEMLAE
# B4: Helicobacter pylori UreG (enzyme)
# chain: MVKIGVCGPVGSGKTALIEALTRHMSKDYDMAVITNDIYTKEDAEFMCKNSVMPRERIIGVETGGCPHTAIREDASMNLEAVEEMHGRFPNLELLLIESGGDNLSATFNPELADFTIFVIDVAEGDKIPRKGGPGITRSDLLVINKIDLAPYVGADLKVMERDSKKMRGEKPFIFTNIRAKEGLDDVIAWIKRNALLED
# What was measured:
# Helicobacter pylori UreG = target: B4; experiment: crystal structure
# crystal structure = target: the molecule itself; experiment: crystal structure
# [1] = target: T1, Helicobacter pylori UreE, wild-type …; experiment: pull-down
Binder,binding result (Helicobacter pylori UreG),binding result (crystal structure),binding result [1]
B1,binds,binds,–
B2,binds,binds,–
B3,–,–,binds
B4,–,binds,–
